Test results from the supplement of paper PMC9876800.

System: peptide library, one residue held at a place counted from the S/T acceptor
Assay: relative phosphorylation of the sub-library (ratio to the mean residue at this position); human; higher = residue favoured
Settings: H fixed; at -5
Procedure, shortened: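 Relative sub-library phosphorylation is the ratio of each sub-library's signal to the mean residue at that position. The signal came from phosphorimaging of spots on streptavidin membranes, quantified by densitometry, after purified recombinant kinases reacted with biotinylated degenerate peptide sub-libraries in 384-well plates. Reactions held 50 μM peptide and 50 μM ATP spiked with γ-32P-ATP for 90 min under kinase-specific conditions.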

CHEK2, construct: Full length, sequence (O96017 whole entry, looked up): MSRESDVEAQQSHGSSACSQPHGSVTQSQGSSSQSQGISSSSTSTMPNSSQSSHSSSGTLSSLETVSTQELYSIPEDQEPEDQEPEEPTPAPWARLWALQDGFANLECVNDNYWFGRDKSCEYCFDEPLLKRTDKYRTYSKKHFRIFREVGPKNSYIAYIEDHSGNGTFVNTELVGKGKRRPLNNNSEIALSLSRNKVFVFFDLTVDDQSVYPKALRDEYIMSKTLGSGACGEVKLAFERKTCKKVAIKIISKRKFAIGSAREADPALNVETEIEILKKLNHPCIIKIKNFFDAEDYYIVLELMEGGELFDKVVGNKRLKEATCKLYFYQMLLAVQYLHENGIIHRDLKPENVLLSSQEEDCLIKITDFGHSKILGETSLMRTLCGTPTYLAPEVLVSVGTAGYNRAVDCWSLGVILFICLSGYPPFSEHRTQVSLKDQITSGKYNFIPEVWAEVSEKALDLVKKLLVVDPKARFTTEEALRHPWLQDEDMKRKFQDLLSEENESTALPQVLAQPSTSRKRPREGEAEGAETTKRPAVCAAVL
TTBK1, construct: Full length, sequence (Q5TCY1 whole entry, looked up): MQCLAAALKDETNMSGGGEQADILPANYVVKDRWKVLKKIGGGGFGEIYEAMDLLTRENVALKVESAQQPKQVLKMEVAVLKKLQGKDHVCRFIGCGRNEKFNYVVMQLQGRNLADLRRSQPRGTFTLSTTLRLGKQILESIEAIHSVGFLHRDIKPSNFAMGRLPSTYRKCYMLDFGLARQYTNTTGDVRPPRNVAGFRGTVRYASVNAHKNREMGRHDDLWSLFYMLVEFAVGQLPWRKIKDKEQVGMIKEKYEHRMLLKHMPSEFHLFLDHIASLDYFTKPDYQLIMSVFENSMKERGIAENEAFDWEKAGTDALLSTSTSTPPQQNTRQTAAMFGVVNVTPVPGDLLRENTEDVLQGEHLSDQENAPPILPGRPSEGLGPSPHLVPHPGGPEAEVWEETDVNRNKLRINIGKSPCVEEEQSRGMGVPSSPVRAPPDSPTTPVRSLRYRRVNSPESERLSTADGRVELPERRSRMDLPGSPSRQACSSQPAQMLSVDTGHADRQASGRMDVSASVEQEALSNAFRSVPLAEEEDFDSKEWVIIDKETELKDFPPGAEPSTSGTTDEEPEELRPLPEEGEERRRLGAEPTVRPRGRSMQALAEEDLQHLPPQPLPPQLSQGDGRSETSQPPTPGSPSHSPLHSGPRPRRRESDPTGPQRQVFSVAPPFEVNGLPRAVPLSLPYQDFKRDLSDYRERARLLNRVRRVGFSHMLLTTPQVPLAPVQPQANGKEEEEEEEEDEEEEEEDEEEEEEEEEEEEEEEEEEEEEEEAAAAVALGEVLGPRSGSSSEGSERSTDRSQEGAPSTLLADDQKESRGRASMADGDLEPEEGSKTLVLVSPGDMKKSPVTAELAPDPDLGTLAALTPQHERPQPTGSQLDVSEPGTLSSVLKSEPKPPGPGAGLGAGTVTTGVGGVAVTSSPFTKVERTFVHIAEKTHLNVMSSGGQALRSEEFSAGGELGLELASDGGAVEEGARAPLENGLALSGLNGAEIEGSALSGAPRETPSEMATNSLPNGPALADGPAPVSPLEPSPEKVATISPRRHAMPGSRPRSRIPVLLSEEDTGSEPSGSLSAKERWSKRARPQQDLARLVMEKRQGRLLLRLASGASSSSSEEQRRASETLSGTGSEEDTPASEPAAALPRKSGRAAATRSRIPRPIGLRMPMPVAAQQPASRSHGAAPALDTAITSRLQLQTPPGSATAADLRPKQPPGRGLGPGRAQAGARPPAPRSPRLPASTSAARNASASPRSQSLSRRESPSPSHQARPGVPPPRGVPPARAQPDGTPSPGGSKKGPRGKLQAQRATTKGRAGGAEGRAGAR
MAP4K3, construct: aa1-380, sequence (Q8IVH8 1-380, looked up): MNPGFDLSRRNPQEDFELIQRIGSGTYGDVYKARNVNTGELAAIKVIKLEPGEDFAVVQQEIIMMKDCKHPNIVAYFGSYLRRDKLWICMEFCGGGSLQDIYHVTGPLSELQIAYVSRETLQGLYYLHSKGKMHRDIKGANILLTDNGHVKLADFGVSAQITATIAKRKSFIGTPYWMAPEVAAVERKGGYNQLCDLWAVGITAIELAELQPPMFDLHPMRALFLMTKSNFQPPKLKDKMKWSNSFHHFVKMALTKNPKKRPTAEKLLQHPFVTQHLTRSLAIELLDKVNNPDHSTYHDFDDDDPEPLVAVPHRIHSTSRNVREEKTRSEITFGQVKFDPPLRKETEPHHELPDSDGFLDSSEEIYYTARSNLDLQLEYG
MAP3K10, construct: aa1-449, sequence (Q02779 1-449, looked up): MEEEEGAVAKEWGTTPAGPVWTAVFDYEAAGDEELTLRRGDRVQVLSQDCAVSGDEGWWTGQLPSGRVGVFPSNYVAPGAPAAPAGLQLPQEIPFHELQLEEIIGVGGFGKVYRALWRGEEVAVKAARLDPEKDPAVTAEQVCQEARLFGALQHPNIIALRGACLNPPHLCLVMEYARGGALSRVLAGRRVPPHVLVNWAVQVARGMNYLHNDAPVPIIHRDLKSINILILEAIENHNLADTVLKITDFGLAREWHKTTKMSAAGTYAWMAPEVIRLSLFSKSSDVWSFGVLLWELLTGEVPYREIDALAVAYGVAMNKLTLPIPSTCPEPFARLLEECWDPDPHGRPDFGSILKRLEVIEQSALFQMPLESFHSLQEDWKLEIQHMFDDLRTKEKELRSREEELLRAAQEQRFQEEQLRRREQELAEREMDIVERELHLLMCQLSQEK
CAMK1, construct: Full length, sequence (Q14012 whole entry, looked up): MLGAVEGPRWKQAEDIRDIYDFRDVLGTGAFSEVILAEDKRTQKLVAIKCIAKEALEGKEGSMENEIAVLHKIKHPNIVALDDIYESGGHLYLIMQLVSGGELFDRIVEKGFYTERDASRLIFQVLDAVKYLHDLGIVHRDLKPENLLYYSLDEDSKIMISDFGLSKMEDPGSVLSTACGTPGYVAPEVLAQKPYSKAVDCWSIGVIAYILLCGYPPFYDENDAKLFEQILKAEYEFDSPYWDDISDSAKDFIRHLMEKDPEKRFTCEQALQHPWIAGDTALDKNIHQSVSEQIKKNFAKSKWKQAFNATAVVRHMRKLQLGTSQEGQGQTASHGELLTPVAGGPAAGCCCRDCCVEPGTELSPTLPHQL
MOK, construct: aa1-343, sequence (Q9UQ07 1-343, looked up): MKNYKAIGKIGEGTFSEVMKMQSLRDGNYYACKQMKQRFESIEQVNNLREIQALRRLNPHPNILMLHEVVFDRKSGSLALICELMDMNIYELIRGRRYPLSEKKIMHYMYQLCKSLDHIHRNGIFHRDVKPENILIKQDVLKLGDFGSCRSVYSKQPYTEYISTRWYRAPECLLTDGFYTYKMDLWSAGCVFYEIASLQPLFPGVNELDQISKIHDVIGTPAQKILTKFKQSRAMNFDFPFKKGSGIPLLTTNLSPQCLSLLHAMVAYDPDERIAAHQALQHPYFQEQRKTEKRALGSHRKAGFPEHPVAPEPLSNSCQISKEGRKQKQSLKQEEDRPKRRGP
EIF2AK1, construct: Full length, sequence (Q9BQI3 whole entry, looked up): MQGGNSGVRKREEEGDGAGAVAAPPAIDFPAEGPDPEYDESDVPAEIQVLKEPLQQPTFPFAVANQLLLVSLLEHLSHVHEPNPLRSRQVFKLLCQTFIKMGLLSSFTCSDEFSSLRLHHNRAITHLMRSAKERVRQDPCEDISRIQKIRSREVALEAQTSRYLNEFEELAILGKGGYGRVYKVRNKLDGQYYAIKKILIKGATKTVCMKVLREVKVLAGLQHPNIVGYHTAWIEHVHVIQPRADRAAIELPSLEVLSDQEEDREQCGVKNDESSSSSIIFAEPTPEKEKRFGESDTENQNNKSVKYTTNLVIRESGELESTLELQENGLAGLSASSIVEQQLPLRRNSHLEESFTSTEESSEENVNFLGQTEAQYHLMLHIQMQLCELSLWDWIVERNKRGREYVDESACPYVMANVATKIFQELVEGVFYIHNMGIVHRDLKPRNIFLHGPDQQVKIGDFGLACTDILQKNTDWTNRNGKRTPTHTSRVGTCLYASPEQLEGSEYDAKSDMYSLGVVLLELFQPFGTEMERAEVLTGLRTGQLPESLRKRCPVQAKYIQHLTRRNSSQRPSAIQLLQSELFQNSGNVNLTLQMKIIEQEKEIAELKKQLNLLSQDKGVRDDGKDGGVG

**Q.** How did the relative phosphorylation turn out when “MAP4K3, construct: aa1-380 (from UniProt Q8IVH8)” was run?
**A.** 1.07

**Q.** “CAMK1, construct: Full length (from UniProt Q14012)” was tested. Which relative phosphorylation did it give?
**A.** 0.527

**Q.** Which relative phosphorylation does the source give for “MAP3K10, construct: aa1-449 (from UniProt Q02779)” here?
**A.** 1.17

**Q.** Which relative phosphorylation does the source give for “EIF2AK1, construct: Full length (from UniProt Q9BQI3)” here?
**A.** 0.962

**Q.** Which relative phosphorylation does the source give for “PKN3, construct: Full length (from UniProt Q6P5Z2)” here?
**A.** 1.12

Same assay, conditions: I fixed; at +1

**Q.** With “MOK, construct: aa1-343 (from UniProt Q9UQ07)” as the substance, how does the relative phosphorylation read?
**A.** 0.215

**Q.** Which relative phosphorylation does the source give for “TTBK1, construct: Full length (from UniProt Q5TCY1)” here?
**A.** 2.66

**Q.** Which relative phosphorylation does the source give for “CHEK2, construct: Full length (from UniProt O96017)” here?
**A.** 1.51

**Q.** How did the relative phosphorylation turn out when “MAP4K3, construct: aa1-380 (from UniProt Q8IVH8)” was run?
**A.** 1.8

**Q.** With “CAMK1, construct: Full length (from UniProt Q14012)” as the substance, how does the relative phosphorylation read?
**A.** 0.715

**Q.** For “MAP3K10, construct: aa1-449 (from UniProt Q02779)”, which relative phosphorylation is on record?
**A.** 0.774

**Q.** With “EIF2AK1, construct: Full length (from UniProt Q9BQI3)” as the substance, how does the relative phosphorylation read?
**A.** 1.24

**Q.** “PKN3, construct: Full length (from UniProt Q6P5Z2)” was tested. Which relative phosphorylation did it give?
**A.** 1.14

Same assay, conditions: I fixed; at +2

**Q.** With “MOK, construct: aa1-343 (from UniProt Q9UQ07)” as the substance, how does the relative phosphorylation read?
**A.** 0.624

**Q.** With “TTBK1, construct: Full length (from UniProt Q5TCY1)” as the substance, how does the relative phosphorylation read?
**A.** 1.23

**Q.** With “CHEK2, construct: Full length (from UniProt O96017)” as the substance, how does the relative phosphorylation read?
**A.** 0.934

**Q.** Which relative phosphorylation does the source give for “MAP4K3, construct: aa1-380 (from UniProt Q8IVH8)” here?
**A.** 0.357

**Q.** “CAMK1, construct: Full length (from UniProt Q14012)” was tested. Which relative phosphorylation did it give?
**A.** 1.06

**Q.** For “MAP3K10, construct: aa1-449 (from UniProt Q02779)”, which relative phosphorylation is on record?
**A.** 0.445

**Q.** How did the relative phosphorylation turn out when “EIF2AK1, construct: Full length (from UniProt Q9BQI3)” was run?
**A.** 0.954

**Q.** Which relative phosphorylation does the source give for “PKN3, construct: Full length (from UniProt Q6P5Z2)” here?
**A.** 0.724

Same assay, conditions: I fixed; at +3

**Q.** For “MOK, construct: aa1-343 (from UniProt Q9UQ07)”, which relative phosphorylation is on record?
**A.** 0.704

**Q.** For “TTBK1, construct: Full length (from UniProt Q5TCY1)”, which relative phosphorylation is on record?
**A.** 1.54

**Q.** For “CHEK2, construct: Full length (from UniProt O96017)”, which relative phosphorylation is on record?
**A.** 0.975

**Q.** Which relative phosphorylation does the source give for “MAP4K3, construct: aa1-380 (from UniProt Q8IVH8)” here?
**A.** 0.432

**Q.** How did the relative phosphorylation turn out when “CAMK1, construct: Full length (from UniProt Q14012)” was run?
**A.** 0.751

**Q.** For “MAP3K10, construct: aa1-449 (from UniProt Q02779)”, which relative phosphorylation is on record?
**A.** 0.773

**Q.** Which relative phosphorylation does the source give for “EIF2AK1, construct: Full length (from UniProt Q9BQI3)” here?
**A.** 0.788

**Q.** “PKN3, construct: Full length (from UniProt Q6P5Z2)” was tested. Which relative phosphorylation did it give?
**A.** 0.782

Same assay, conditions: I fixed; at +4

**Q.** “MOK, construct: aa1-343 (from UniProt Q9UQ07)” was tested. Which relative phosphorylation did it give?
**A.** 0.855

**Q.** For “TTBK1, construct: Full length (from UniProt Q5TCY1)”, which relative phosphorylation is on record?
**A.** 0.714

**Q.** With “CHEK2, construct: Full length (from UniProt O96017)” as the substance, how does the relative phosphorylation read?
**A.** 0.941

**Q.** How did the relative phosphorylation turn out when “MAP4K3, construct: aa1-380 (from UniProt Q8IVH8)” was run?
**A.** 0.733

**Q.** For “CAMK1, construct: Full length (from UniProt Q14012)”, which relative phosphorylation is on record?
**A.** 1.42

**Q.** For “MAP3K10, construct: aa1-449 (from UniProt Q02779)”, which relative phosphorylation is on record?
**A.** 0.705

**Q.** For “EIF2AK1, construct: Full length (from UniProt Q9BQI3)”, which relative phosphorylation is on record?
**A.** 0.809

**Q.** “PKN3, construct: Full length (from UniProt Q6P5Z2)” was tested. Which relative phosphorylation did it give?
**A.** 0.714

Same assay, conditions: I fixed; at -1

**Q.** Which relative phosphorylation does the source give for “MOK, construct: aa1-343 (from UniProt Q9UQ07)” here?
**A.** 0.511

**Q.** With “TTBK1, construct: Full length (from UniProt Q5TCY1)” as the substance, how does the relative phosphorylation read?
**A.** 1.67

**Q.** How did the relative phosphorylation turn out when “CHEK2, construct: Full length (from UniProt O96017)” was run?
**A.** 0.81

**Q.** How did the relative phosphorylation turn out when “MAP4K3, construct: aa1-380 (from UniProt Q8IVH8)” was run?
**A.** 0.279

**Q.** Which relative phosphorylation does the source give for “CAMK1, construct: Full length (from UniProt Q14012)” here?
**A.** 0.49

**Q.** How did the relative phosphorylation turn out when “MAP3K10, construct: aa1-449 (from UniProt Q02779)” was run?
**A.** 0.65

**Q.** How did the relative phosphorylation turn out when “EIF2AK1, construct: Full length (from UniProt Q9BQI3)” was run?
**A.** 1.19

**Q.** “PKN3, construct: Full length (from UniProt Q6P5Z2)” was tested. Which relative phosphorylation did it give?
**A.** 0.444

Same assay, conditions: I fixed; at -2

**Q.** For “MOK, construct: aa1-343 (from UniProt Q9UQ07)”, which relative phosphorylation is on record?
**A.** 0.863

**Q.** With “TTBK1, construct: Full length (from UniProt Q5TCY1)” as the substance, how does the relative phosphorylation read?
**A.** 1.02

**Q.** For “CHEK2, construct: Full length (from UniProt O96017)”, which relative phosphorylation is on record?
**A.** 0.598

**Q.** “MAP4K3, construct: aa1-380 (from UniProt Q8IVH8)” was tested. Which relative phosphorylation did it give?
**A.** 0.676

**Q.** Which relative phosphorylation does the source give for “CAMK1, construct: Full length (from UniProt Q14012)” here?
**A.** 0.413

**Q.** For “MAP3K10, construct: aa1-449 (from UniProt Q02779)”, which relative phosphorylation is on record?
**A.** 0.505

**Q.** How did the relative phosphorylation turn out when “EIF2AK1, construct: Full length (from UniProt Q9BQI3)” was run?
**A.** 0.606

**Q.** Which relative phosphorylation does the source give for “PKN3, construct: Full length (from UniProt Q6P5Z2)” here?
**A.** 0.511

Same assay, conditions: I fixed; at -3

**Q.** For “MOK, construct: aa1-343 (from UniProt Q9UQ07)”, which relative phosphorylation is on record?
**A.** 0.54

**Q.** Which relative phosphorylation does the source give for “TTBK1, construct: Full length (from UniProt Q5TCY1)” here?
**A.** 1.56

**Q.** How did the relative phosphorylation turn out when “CHEK2, construct: Full length (from UniProt O96017)” was run?
**A.** 0.199

**Q.** With “MAP4K3, construct: aa1-380 (from UniProt Q8IVH8)” as the substance, how does the relative phosphorylation read?
**A.** 0.556

**Q.** With “CAMK1, construct: Full length (from UniProt Q14012)” as the substance, how does the relative phosphorylation read?
**A.** 0.165

**Q.** For “MAP3K10, construct: aa1-449 (from UniProt Q02779)”, which relative phosphorylation is on record?
**A.** 0.484

**Q.** With “EIF2AK1, construct: Full length (from UniProt Q9BQI3)” as the substance, how does the relative phosphorylation read?
**A.** 1.09

**Q.** “PKN3, construct: Full length (from UniProt Q6P5Z2)” was tested. Which relative phosphorylation did it give?
**A.** 0.427

Same assay, conditions: I fixed; at -4

**Q.** With “MOK, construct: aa1-343 (from UniProt Q9UQ07)” as the substance, how does the relative phosphorylation read?
**A.** 0.73

**Q.** “TTBK1, construct: Full length (from UniProt Q5TCY1)” was tested. Which relative phosphorylation did it give?
**A.** 1.24

**Q.** With “CHEK2, construct: Full length (from UniProt O96017)” as the substance, how does the relative phosphorylation read?
**A.** 0.924

**Q.** For “MAP4K3, construct: aa1-380 (from UniProt Q8IVH8)”, which relative phosphorylation is on record?
**A.** 0.696

**Q.** “CAMK1, construct: Full length (from UniProt Q14012)” was tested. Which relative phosphorylation did it give?
**A.** 1.03

**Q.** How did the relative phosphorylation turn out when “MAP3K10, construct: aa1-449 (from UniProt Q02779)” was run?
**A.** 0.541

**Q.** Which relative phosphorylation does the source give for “EIF2AK1, construct: Full length (from UniProt Q9BQI3)” here?
**A.** 1.1

**Q.** How did the relative phosphorylation turn out when “PKN3, construct: Full length (from UniProt Q6P5Z2)” was run?
**A.** 0.776

Same assay, conditions: I fixed; at -5

**Q.** “MOK, construct: aa1-343 (from UniProt Q9UQ07)” was tested. Which relative phosphorylation did it give?
**A.** 0.865

**Q.** How did the relative phosphorylation turn out when “TTBK1, construct: Full length (from UniProt Q5TCY1)” was run?
**A.** 1.19

**Q.** “CHEK2, construct: Full length (from UniProt O96017)” was tested. Which relative phosphorylation did it give?
**A.** 1.7

**Q.** For “MAP4K3, construct: aa1-380 (from UniProt Q8IVH8)”, which relative phosphorylation is on record?
**A.** 0.772

**Q.** For “CAMK1, construct: Full length (from UniProt Q14012)”, which relative phosphorylation is on record?
**A.** 1.49

**Q.** With “MAP3K10, construct: aa1-449 (from UniProt Q02779)” as the substance, how does the relative phosphorylation read?
**A.** 0.596

**Q.** For “EIF2AK1, construct: Full length (from UniProt Q9BQI3)”, which relative phosphorylation is on record?
**A.** 1.29

**Q.** For “PKN3, construct: Full length (from UniProt Q6P5Z2)”, which relative phosphorylation is on record?
**A.** 1.18

Same assay, conditions: K fixed; at +1

**Q.** How did the relative phosphorylation turn out when “MOK, construct: aa1-343 (from UniProt Q9UQ07)” was run?
**A.** 0.574

**Q.** How did the relative phosphorylation turn out when “TTBK1, construct: Full length (from UniProt Q5TCY1)” was run?
**A.** 0.517

**Q.** “CHEK2, construct: Full length (from UniProt O96017)” was tested. Which relative phosphorylation did it give?
**A.** 1.02

**Q.** For “MAP4K3, construct: aa1-380 (from UniProt Q8IVH8)”, which relative phosphorylation is on record?
**A.** 0.642

**Q.** How did the relative phosphorylation turn out when “CAMK1, construct: Full length (from UniProt Q14012)” was run?
**A.** 1.35

**Q.** With “MAP3K10, construct: aa1-449 (from UniProt Q02779)” as the substance, how does the relative phosphorylation read?
**A.** 1.12

**Q.** For “EIF2AK1, construct: Full length (from UniProt Q9BQI3)”, which relative phosphorylation is on record?
**A.** 0.975

**Q.** With “PKN3, construct: Full length (from UniProt Q6P5Z2)” as the substance, how does the relative phosphorylation read?
**A.** 0.802

Same assay, conditions: K fixed; at +2

**Q.** With “MOK, construct: aa1-343 (from UniProt Q9UQ07)” as the substance, how does the relative phosphorylation read?
**A.** 1.15
